Measurements from patent US12612465B2, “Formulations comprising PCSK9 specific monoclonal antibodies” (Amgen Inc., priority 2012, dated 2026).
Entries after “also recorded” stand apart in the source; their conditions may differ.

Experiments:
[1] = Osmolality of 21B12 formulations; assay type: physicochemical
Description: In certain embodiments, the pharmaceutical formulation is isotonic with an osmolality ranging from between about 250 to about 350 miliosmol/kg, e.g., about 250 mOsm/kg, about 260 mOsm/kg, about 270 mOsm/kg, about 280 mOsm/kg, about 290 mOsm/kg, about 300 mOsm/kg, about 310 mOsm/kg, about 320 mOsm/kg, about 330 mOsm/kg, about 340 mOsm/kg, or about 350 mOsm/kg, and including all values in between. As used herein, “osmolality” is the measure of the ratio of solutes to volume fluid. In other words, it is the number of molecules and ions (or molecules) per kilogram of a solution. Osmolality may be measured on an analytical instrument called an osmometer, such as Advanced Instruments 2020 Multi-sample Osmometer, Norwood, Mass. The Advanced Instruments 2020 Multi-sample Osmometer measures osmolality by using the Freezing Point Depression method. The higher the osmolytes in a solution, the temperature in which it will freeze drops. Osmolality may also be measured using any other methods and in any other units known in the art such as linear extrapolation.

LDLR = LDLR levels in HepG2 and HepG2-PCSK9 cells with mevinolin (immunoblot); assay type: cell-based, human; settings: 48 hours
Protocol: HepG2 cells were seeded in DMEM with 10% fetal bovine serum (FBS) and grown to ˜90% confluence. The cells were treated with indicated amounts of mevinolin (a statin, Sigma) and PCSK9 ABPs (FIGS. 12A-12C) in DMEM with 3% FBS for 48 hours. Total cell lysates were prepared. […] of total proteins were separated by gel electrophoresis and transferred to PVDF membrane. Immunoblots were performed using rabbit anti-human LDL receptor antibody (Fitzgerald) or rabbit anti-human b-actin antibody. The enhanced chemiluminescent results are shown in the top panels of FIGS. 12A-12C. The intensity of the bands were quantified by ImageJ software and normalized by b-actin. The relative levels of LDLR are shown in the lower panels of FIGS. 12A-12C.
HepG2-PCSK9 cells were also created. These were stable HepG2 cell line transfected with human PCSK9. The cells were seeded in DMEM with 10% fetal bovine serum (FBS) and grew to ˜90% confluence. The cells were treated with indicated amounts of mevinolin (Sigma) and PCSK9 ABPs (FIGS. 12D-12F) in DMEM with 3% FBS for 48 hours. Total cell lysates were prepared. […] of total proteins were separated by gel electrophoresis and transferred to PVDF membrane Immunoblots were performed using rabbit anti-human LDL receptor antibody (Fitzgerald) or rabbit anti-human b-actin antibody. […] The intensity of the bands were quantified by ImageJ software and normalized by b-actin.

PCSK9 [2] = molecular target: T1, PCSK9 (Homo sapiens, UniProt Q8NBP7); experiment: Aggregate data of the studies of Examples 22-25; assay type: in vivo
T1 construct: endogenous in cells; host or cells: human subjects, in vivo

PCSK9 [3] = experiment: Serum lipids after a single subcutaneous dose in cynomolgus monkeys; assay type: in vivo, cynomolgus monkey; settings: 0.5 mg/kg single SC
Description: Briefly, naive male cynomolgus monkeys were acclimated to their environment for at least 2 weeks prior to experimentation. Animals were randomized into treatment groups based on a pre-screen of their serum TC, HDL-C, LDL-C, and triglyceride levels, and their body weight. After 1 week, animals were fasted overnight, and bled from the peripheral vasculature (cephalic or saphenous vein), for measurement of baseline serum lipid levels at a time point designated T=0. […] Fasting blood samples were then collected from animals at designated time points over a 45 day period.
At specified time points, blood was collected from animals under overnight fasting conditions from the peripheral vasculature (cephalic or saphenous vein). Whole blood was allowed to coagulate for 30 minutes at room temperature. Following centrifugation at 3,000 rpm for 20 minutes, serum was collected. Direct serum cholesterol analysis was performed using the Cobas Integra 400 analyzer (Roche Diagnostics Inc, Indianapolis, Ind.). Apolipoprotein B serum levels were determined at specified time points (day 0, 3, 6, 15, 24 and 33) by Anilytics, Md., with the following methodology. A 17 μL aliquot of the sample (no preparation) was used for analysis with a Hitachi 717 Analyzer using a 6 points standard curve. If the initial value of the sample was higher than the standard curve linearity, then the sample was diluted and repeated with the result multiplied by the appropriate dilution factor. The reagents for the assay (APO-B Reagent Kit #86071, Antibody Set #86060, Control Set #86103) were obtained from DiaSorin (Stillwater, Minn.).
A statistical model that considers baseline as a covariate and treatment group as a fixed effect was fit to the log transformed response at each time point for LDL-C, HDL-C, TC, and triglycerides. Tukey's multiple comparison correction was applied to adjust the pair wise comparisons at each time point. The statistical significance was evaluated at alpha=0.05 using adjusted p-values.

PCSK9 [4] = molecular target: T1, PCSK9; experiment: Phase 1b ascending multiple dose study in hyperlipidemic subjects on a statin; assay type: in vivo
Protocol: The study had seven cohorts. […] Cohort 6 was conducted in hypercholesterolemic subjects on high doses of a statin (atorvastatin 80 mg or rosuvastatin 40 mg).

[5] = cohorts 1-5, end of dosing interval

T1 sequence (Q8NBP7 153-692): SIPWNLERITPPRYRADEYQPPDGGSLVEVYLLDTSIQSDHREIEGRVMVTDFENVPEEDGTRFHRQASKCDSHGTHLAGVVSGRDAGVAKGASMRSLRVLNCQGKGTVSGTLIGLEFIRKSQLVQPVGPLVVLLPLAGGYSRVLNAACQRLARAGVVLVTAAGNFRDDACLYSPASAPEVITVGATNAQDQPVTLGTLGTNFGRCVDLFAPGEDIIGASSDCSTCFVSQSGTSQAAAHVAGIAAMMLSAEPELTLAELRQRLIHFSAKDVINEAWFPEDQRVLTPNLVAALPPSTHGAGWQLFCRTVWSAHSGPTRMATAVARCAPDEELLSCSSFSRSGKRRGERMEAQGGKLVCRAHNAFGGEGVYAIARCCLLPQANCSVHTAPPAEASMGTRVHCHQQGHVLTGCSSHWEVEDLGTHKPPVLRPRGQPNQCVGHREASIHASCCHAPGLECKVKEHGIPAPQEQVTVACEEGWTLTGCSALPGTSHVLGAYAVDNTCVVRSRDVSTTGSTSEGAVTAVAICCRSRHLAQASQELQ

- reduction from baseline in LDL-C at week 12 (PCSK9 [2]; 140 mg Q2W): ~60%
- reduction from baseline in LDL-C at week 12 (PCSK9 [2]; 420 mg Q4W): ~56%
- dose dependent reduction from baseline in ApoB (PCSK9 [2]; p values<0.001): 36-53%
- dose dependent reduction from baseline in non-HDL-C (PCSK9 [2]; p values<0.001): 36-53%
- dose dependent reduction from baseline in total cholesterol (PCSK9 [2]; p values<0.001): 25-37%
- suppression of PCSK9 (PCSK9 [4]; cohort 3 (140 mg Q2W SC 3 times), preliminary): Near-complete suppression of PCSK9
- maximum reduction in LDL-C versus placebo (PCSK9 [4]; cohort 6, high-dose statins): 73%
- mean reduction in LDL-C vs placebo (PCSK9 [4]; cohort 6, high-dose statins, end of dosing interval after 3 biweekly doses): 63%
- maximum LDL-C reduction versus placebo (PCSK9 [4]; cohort 7 heFH): 70%
- maximum reduction of ApoB versus placebo (PCSK9 [4]; cohort 7 heFH): 57%
- maximum reduction of non-HDL cholesterol versus placebo (PCSK9 [4]; cohort 7 heFH): 67%
- maximum total cholesterol reduction versus placebo (PCSK9 [4]; cohort 7 heFH): 47%
- mean reduction in LDL-C vs placebo (PCSK9 [4]; cohort 7 heFH, 140 mg SC Q2W 3 times, week 6): 65%
- mean reduction in ApoB levels vs placebo (PCSK9 [4]; cohort 7 heFH, week 6): up to 47%
- mean reduction in lipoprotein a (Lp(a)) vs placebo (PCSK9 [4]; cohort 7 heFH, week 6): 50%
- mean reduction in non-HDL cholesterol vs placebo (PCSK9 [4]; cohort 7 heFH, week 6): 61%
- mean reduction in serum PCSK9 values vs placebo (PCSK9 [4]; cohort 7 heFH, week 6): 78%
- mean reduction in total cholesterol vs placebo (PCSK9 [4]; cohort 7 heFH, week 6): up to 42%
- maximum ApoB reduction vs placebo (PCSK9 [4]; cohorts 1-5): up to 59%
- mean LDL-C reduction vs placebo at maximal reduction (PCSK9 [4]; cohorts 1-5, low to moderate statin doses): up to 81%
- mean ApoB reduction vs placebo (PCSK9 [4]; [5]): up to 54%
- mean reduction of PCSK9 levels vs placebo (PCSK9 [4]; [5]): up to 94%
- mean LDL-C reduction vs placebo at end of dosing interval (PCSK9 [4]; cohorts 1-5, week 6 after 3 biweekly SC doses): ≤ 75%
- mean LDL-C reduction at end of dosing interval (PCSK9 [4]; cohorts 1-5, week 8 after 2 every 4 week SC doses): ≤ 66%
- mean Lp(a) reduction vs placebo (PCSK9 [4]; cohorts 1-6, end of dosing interval): up to 43%
- circulating PCSK9 after treatment (PCSK9 [4]; heFH subjects): undetectable
- plasma PCSK9 (PCSK9 [4]; higher doses): undetectable
- decrease in circulating LDL-C vs placebo (PCSK9 [4]; repeated SC doses over 6 weeks, low-to-moderate or high-dose statins): up to 81%
- LDL-C nadir observed after initial dosing (PCSK9 [4]; subjects on stable moderate statin doses, preliminary): ≤ 2 weeks
B1: 21B12: human anti-PCSK9 monoclonal antibody, light/heavy variable region SEQ ID NO 23/49 (antibody, listed as Homo sapiens, V domains shown)
VH: QVQLVQSGAEVKKPGASVKVSCKASGYTLTSYGISWVRQAPGQGLEWMGWVSFYNGNTNYAQKLQGRGTMTTDPSTSTAYMELRSLRSDDTAVYYCARGYGMDVWGQGTTVTVSS
VL: QSALTQPASVSGSPGQSITISCTGTSSDVGGYNSVSWYQQHPGKAPKLMIYEVSNRPSGVSNRFSGSKSGNTASLTISGLQAEDEADYYCNSYTSTSMVFGGGTKLTVL
- Osmolality ([1]; 73 mg/mL, 10 mM Na acetate, pH 5.2 +3% proline): 253 mOsmol/kg
- Osmolality ([1]; 76 mg/mL, 10 mM Na acetate, pH 5.2): 53 mOsmol/kg
- Osmolality ([1]; 116 mg/mL, 10 mM sodium acetate, pH 4.8, 50 mM methionine + 2% benzyl alcohol): 329 mOsmol/kg
- Osmolality ([1]; 116 mg/mL, 10 mM sodium acetate, pH 4.8, 150 mM arginine): 241 mOsmol/kg
- Osmolality ([1]; 116 mg/mL, 10 mM sodium acetate, pH 4.8, 1.5% proline + 1% benzyl alcohol): 277 mOsmol/kg
- Osmolality ([1]; 116 mg/mL, 10 mM sodium acetate, pH 4.8, 2% proline + 1% benzyl alcohol): 313 mOsmol/kg
- Osmolality ([1]; 116 mg/mL, 10 mM sodium acetate, pH 4.8, no excipient): 72 mOsmol/kg
- Osmolality ([1]; 117 mg/mL, 10 mM Na acetate, pH 4.5): 59 mOsmol/kg
- Osmolality ([1]; 122 mg/mL, 10 mM Na acetate, pH 5.2 +3% proline): 274 mOsmol/kg
- Osmolality ([1]; 130 mg/mL, 10 mM Na acetate, pH 5): 59 mOsmol/kg
- Osmolality ([1]; 148 mg/mL, 10 mM Na acetate, pH 5.2 +3% proline): 301 mOsmol/kg
- Osmolality ([1]; 154 mg/mL, 10 mM Na acetate, pH 5.2): Did not freeze
- Osmolality ([1]; […], 10 mM Na acetate, pH 4): 59 mOsmol/kg
- Osmolality ([1]; […], 10 mM Na acetate, pH 5.2 +150 mM NaCl): 346 mOsmol/kg
- Osmolality ([1]; […], 10 mM Na acetate, pH 5.2 +3% proline): 252 mOsmol/kg
- Osmolality ([1]; […], 10 mM Na acetate, pH 5.5): 64 mOsmol/kg
- Osmolality ([1]; […], 10 mM Na acetate, pH 5.5 +150 Mm methionine and 3% benzyl alcohol): 520 mOsmol/kg
- LDLR levels compared with the non-neutralizer 25A7.1 (LDLR): greater increase in LDLR levels
- LDL-C returned to levels similar to control animals (PCSK9 [3]): ≤ 6 days
- TC returned to levels similar to control animals (PCSK9 [3]): ≤ 4 days
- maximal LDL-C lowering as compared to control animals (PCSK9 [3]): 64%
- maximal TC lowering as compared to control animals (PCSK9 [3]): 20%
- maximal lowering of LDL-C vs anti-KLH IgG2 control at the same time point (change) (PCSK9 [3]): −64%
- serum HDL-C vs anti-KLH IgG2 control (PCSK9 [3]): statistically significant change in HDL-C at a single time point (day 18 following injection); also recorded: lowered HDL-C at a single time point, 18 days after injection
- time of maximal LDL-C lowering after injection (PCSK9 [3]): 3 days
- time of maximal TC lowering after injection (PCSK9 [3]): 3 days
- triglycerides levels vs anti-KLH IgG2 control (PCSK9 [3]): No statistically significant changes
- serum ApoB vs anti-KLH IgG2 control (PCSK9 [3]; days 3, 6, 15, 24 and 33): statistically significant lower ApoB levels at day 3 only
- serious AEs (PCSK9 [4]; repeated SC doses over 6 weeks): no serious AEs
